Reference: IntAct's records for PubMed 29040270

B1: Rho-related GTP-binding protein RhoE (Homo sapiens), P61587 (parent)
chain: MKERRASQKLSSKSIMDPNQNVKCKIVVVGDSQCGKTALLHVFAKDCFPENYVPTVFENYTASFEIDTQRIELSLWDTSGSPYYDNVRPLSYPDSDAVLICFDISRPETLDSVLKKWKGEIQEFCPNTKMLLVGCKSDLRTDVSTLVELSNHRQTPVSYDQGANMAKQIGAATYIECSALQSENSVRDIFHVATLACVNKTNKNVKRNKSQRATKRISHMPSRPELSAVATDLRKDKAKSCTVM

What was measured:
[1] = variants of: B1; details: with plxb1_human PLXNB1, O43157
[2] = variants of: B1; details: with plxb2_human PLXNB2, O15031
Chain of plxb2_human PLXNB2, O15031 (O15031 whole entry): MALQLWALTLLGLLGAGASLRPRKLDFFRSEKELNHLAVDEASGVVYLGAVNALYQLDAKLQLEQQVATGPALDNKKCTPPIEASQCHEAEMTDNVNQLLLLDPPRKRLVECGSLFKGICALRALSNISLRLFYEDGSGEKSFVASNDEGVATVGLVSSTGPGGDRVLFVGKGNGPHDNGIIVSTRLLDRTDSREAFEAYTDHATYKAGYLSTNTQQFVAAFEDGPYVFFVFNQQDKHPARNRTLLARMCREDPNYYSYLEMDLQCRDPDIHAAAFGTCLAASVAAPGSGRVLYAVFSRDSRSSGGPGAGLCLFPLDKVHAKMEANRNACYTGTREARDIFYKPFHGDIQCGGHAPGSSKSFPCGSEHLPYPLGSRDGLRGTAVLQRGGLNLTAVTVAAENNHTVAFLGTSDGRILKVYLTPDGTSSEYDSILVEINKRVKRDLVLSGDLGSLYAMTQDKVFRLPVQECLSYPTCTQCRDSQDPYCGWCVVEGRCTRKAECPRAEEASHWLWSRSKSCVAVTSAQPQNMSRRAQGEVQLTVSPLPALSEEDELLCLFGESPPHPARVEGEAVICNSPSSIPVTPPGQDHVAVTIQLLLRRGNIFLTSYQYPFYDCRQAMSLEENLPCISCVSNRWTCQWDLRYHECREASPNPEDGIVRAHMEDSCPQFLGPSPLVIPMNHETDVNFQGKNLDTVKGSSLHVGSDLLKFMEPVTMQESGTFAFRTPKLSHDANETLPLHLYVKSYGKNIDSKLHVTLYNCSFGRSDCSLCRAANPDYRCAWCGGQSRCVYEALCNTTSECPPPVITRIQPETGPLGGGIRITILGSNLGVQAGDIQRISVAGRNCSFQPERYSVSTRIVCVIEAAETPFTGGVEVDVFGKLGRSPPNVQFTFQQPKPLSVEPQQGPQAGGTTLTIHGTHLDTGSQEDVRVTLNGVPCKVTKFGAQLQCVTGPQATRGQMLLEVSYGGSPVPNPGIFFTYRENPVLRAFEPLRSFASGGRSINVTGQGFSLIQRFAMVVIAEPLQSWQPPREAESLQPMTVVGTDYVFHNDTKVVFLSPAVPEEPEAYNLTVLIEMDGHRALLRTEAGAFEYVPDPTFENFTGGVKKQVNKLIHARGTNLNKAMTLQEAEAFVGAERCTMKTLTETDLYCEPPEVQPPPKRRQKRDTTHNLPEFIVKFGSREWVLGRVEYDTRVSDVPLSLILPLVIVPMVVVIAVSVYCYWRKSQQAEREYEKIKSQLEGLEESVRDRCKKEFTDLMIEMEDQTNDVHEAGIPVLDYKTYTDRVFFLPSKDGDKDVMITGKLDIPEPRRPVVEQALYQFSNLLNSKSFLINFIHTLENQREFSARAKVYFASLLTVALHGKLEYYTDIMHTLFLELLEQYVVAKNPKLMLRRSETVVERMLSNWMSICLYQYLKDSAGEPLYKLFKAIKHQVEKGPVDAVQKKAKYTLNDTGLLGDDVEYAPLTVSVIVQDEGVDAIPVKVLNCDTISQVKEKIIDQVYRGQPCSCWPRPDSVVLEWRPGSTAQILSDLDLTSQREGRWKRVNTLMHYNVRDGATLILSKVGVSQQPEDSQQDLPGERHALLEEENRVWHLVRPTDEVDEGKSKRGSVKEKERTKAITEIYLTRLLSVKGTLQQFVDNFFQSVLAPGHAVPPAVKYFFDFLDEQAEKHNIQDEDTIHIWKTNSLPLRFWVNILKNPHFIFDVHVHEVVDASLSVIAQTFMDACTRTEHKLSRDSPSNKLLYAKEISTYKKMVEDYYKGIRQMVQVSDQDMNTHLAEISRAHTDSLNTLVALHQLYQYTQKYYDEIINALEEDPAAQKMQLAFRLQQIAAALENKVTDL

Chain of plxb1_human PLXNB1, O43157 (O43157 whole entry): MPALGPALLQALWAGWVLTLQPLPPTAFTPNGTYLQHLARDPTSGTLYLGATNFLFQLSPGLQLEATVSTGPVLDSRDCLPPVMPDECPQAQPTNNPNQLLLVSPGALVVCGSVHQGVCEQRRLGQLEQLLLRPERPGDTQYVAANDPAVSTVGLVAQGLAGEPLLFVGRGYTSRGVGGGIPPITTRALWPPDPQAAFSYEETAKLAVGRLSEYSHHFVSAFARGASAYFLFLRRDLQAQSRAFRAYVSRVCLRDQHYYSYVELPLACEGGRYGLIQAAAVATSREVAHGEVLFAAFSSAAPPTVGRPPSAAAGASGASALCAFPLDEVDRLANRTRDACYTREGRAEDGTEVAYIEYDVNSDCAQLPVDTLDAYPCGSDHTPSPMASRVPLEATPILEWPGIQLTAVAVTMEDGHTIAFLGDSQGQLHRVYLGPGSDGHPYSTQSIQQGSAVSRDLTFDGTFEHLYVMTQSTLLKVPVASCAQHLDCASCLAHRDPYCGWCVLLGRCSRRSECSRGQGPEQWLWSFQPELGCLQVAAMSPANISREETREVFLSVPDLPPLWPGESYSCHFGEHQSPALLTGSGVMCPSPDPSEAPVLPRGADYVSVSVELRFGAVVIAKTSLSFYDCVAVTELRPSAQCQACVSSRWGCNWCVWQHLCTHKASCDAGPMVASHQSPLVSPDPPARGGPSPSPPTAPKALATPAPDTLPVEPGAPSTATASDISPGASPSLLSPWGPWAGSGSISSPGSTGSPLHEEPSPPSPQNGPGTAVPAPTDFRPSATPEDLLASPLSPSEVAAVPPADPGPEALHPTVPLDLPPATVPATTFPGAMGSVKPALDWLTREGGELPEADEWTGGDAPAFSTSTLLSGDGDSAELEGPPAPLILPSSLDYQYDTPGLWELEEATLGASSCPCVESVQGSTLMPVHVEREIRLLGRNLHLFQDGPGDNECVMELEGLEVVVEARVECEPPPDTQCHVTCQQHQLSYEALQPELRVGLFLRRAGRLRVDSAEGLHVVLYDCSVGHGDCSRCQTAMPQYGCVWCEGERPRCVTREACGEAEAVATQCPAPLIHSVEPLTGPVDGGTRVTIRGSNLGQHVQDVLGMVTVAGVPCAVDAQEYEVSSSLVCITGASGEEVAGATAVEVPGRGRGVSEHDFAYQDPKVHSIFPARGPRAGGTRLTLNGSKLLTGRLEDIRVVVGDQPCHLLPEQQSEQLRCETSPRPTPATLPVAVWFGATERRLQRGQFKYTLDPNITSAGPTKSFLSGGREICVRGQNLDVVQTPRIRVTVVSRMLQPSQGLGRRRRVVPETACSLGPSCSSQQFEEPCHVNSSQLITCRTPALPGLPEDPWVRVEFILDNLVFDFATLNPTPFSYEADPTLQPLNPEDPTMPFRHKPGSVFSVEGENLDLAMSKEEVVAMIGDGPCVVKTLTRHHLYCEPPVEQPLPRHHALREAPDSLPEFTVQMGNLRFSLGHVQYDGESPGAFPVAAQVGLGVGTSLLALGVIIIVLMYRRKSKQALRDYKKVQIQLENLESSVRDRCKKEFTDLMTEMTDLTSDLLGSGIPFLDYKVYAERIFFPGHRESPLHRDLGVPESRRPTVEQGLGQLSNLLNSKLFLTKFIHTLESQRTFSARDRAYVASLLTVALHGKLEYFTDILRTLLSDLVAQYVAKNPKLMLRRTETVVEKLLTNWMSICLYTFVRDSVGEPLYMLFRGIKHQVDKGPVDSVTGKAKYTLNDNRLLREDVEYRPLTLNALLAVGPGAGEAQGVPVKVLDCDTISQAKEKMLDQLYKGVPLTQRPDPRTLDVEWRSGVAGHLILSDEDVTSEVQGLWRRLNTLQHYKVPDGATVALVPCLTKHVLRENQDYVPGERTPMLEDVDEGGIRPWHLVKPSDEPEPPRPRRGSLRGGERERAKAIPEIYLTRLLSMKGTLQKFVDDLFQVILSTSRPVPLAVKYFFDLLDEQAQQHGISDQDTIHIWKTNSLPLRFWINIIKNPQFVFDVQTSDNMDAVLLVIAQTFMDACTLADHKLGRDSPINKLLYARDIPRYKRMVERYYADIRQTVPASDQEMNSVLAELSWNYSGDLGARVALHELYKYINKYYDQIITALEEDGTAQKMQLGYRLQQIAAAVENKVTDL

effect of a mutation on the interaction [1] | effect of a mutation on the interaction [2] | Variant
with no effect | with no effect | MKERRASQKLSSKSIMDPNQNVKCKIVVVGDSQCGKTALLHVFAKDCFPENYVPTVFENYTASFEIDTQRIELSLWDTSGSPYYDRVRPLSYPDSDAVLICFDISRPETLDSVLKKWKGEIQEFCPNTKMLLVGCKSDLRTDVSTLVELSNHRQTPVSYDQGANMAKQIGAATYIECSALQSENSVRDIFHVATLACVNKTNKNVKRNKSQRATKRISHMPSRPELSAVATDLRKDKAKSCTVM [N86R]
with no effect | with no effect | MKERRASQKLSSKSIMDPNQNVKCKIVVVGDSQCGKTALLHVFAKDCFPENYVPTVFENYTASFEIDTQRIELSLWDTSGSPYYDNVRPLSYPDSDAVLICFDISRPETLDSVLKKWKGEIQEYCPNTKMLLVGCKSDLRTDVSTLVELSNHRQTPVSYDQGANMAKQIGAATYIECSALQSENSVRDIFHVATLACVNKTNKNVKRNKSQRATKRISHMPSRPELSAVATDLRKDKAKSCTVM [F124Y]
disrupting interaction strength | disrupting interaction strength | MKERRASQKLSSKSIMDPNQNVKCKIVVVGDSQCGKTALLHVFAKDCFPENYVPTVFENYTASFEIDTQRIELSLWDTSGSPYYDNRRPLSYPDSDAVLICFDISRPETLDSVLKKWKGEIQEFCPNTKMLLVGCKSDLRTDVSTLVELSNHRQTPVSYDQGANMAKQIGAATYIECSALQSENSVRDIFHVATLACVNKTNKNVKRNKSQRATKRISHMPSRPELSAVATDLRKDKAKSCTVM [V87R]
disrupting interaction strength | disrupting interaction strength | MKERRASQKLSSKSIMDPNQNVKCKIVVVGDSQCGKTALLHVFAKDCFPENYVPTVFENYTASFEIDTQRIELSLWDTSGSPYYDNVRPRSYPDSDAVLICFDISRPETLDSVLKKWKGEIQEFCPNTKMLLVGCKSDLRTDVSTLVELSNHRQTPVSYDQGANMAKQIGAATYIECSALQSENSVRDIFHVATLACVNKTNKNVKRNKSQRATKRISHMPSRPELSAVATDLRKDKAKSCTVM [L90R]
with no effect | with no effect | MKERRASQKLSSKSIMDPNQNVKCKIVVVGDSQCGKTALLHVFAKDCFPENYVPTVFENATASFEIDTQRIELSLWDTSGSPYYDNVRPLSYPDSDAVLICFDISRPETLDSVLKKWKGEIQEFCPNTKMLLVGCKSDLRTDVSTLVELSNHRQTPVSYDQGANMAKQIGAATYIECSALQSENSVRDIFHVATLACVNKTNKNVKRNKSQRATKRISHMPSRPELSAVATDLRKDKAKSCTVM [Y60A]
